Data taken from paper doi:10.1101/2025.11.13.688182.

target: RAD51 full-length [F86E, A89E], co-expressed with BRC repeats (human) (UniProt Q06609); assay: SEC-SAXS
Sequence of UniProt Q06609 (Q06609 whole entry F86E/A89E): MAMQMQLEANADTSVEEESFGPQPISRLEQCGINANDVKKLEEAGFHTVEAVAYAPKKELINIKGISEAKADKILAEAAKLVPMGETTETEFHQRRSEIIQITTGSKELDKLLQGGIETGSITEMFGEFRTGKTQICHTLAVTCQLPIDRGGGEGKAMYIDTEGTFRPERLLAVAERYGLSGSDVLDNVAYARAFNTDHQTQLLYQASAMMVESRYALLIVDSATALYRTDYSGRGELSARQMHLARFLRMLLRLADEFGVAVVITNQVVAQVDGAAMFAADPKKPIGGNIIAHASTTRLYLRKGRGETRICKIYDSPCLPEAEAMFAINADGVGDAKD

stoichiometry, BRC repeats to RAD51 (RAD51 per BRC repeat), 1:
BRCA2 truncation BRC1-4 (from UniProt P51587 1-3418) (domain or fragment)
BRCA2 truncation BRC1-2 (from UniProt P51587 1-3418) (domain or fragment)
BRCA2 truncation BRC3-4 (from UniProt P51587 1-3418) (domain or fragment)
BRCA2 truncation BRC2-3 (from UniProt P51587 1-3418) (domain or fragment)
BRCA2 truncation BRC2-4 (from UniProt P51587 1-3418) (domain or fragment)
